Results taken from article PMC8629902, “Structure–function relationships explain CTCF zinc finger mutation phenotypes in cancer”.

Molecular target: T1, CTCF WT (UniProt P49711 1-727)
T1 sequence: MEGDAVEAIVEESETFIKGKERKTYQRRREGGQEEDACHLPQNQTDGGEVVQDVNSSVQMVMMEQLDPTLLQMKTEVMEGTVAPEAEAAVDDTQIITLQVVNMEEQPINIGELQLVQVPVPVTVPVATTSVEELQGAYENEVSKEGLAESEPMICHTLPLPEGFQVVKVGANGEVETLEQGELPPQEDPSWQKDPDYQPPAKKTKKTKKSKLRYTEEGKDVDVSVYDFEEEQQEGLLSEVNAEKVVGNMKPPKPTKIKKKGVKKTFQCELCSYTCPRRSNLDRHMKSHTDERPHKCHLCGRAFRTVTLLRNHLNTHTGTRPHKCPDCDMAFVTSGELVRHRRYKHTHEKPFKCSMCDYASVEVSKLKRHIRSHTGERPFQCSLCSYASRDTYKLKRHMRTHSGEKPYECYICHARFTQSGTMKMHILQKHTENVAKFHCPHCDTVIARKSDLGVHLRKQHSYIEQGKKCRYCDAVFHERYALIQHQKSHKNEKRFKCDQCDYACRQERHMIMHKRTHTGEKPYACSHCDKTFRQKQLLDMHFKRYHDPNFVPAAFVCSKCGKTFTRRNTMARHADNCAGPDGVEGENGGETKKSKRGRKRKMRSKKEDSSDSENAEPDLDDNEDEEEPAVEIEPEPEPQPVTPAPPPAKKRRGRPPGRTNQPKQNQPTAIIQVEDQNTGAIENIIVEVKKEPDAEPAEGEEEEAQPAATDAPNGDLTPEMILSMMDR
Assay: pull-down; TnT lysate protein with bead-bound DNA, 3 h at 4 C; beads washed before and after binding in PIB (250 mM NaCl, 50 mM Tris pH 8.0, 0.25% IGEPAL, EDTA-free protease inhibitor); anti-CTCF Western blot
Settings: protein: ivt; tags: FLAG (pcDNA3.1-FLAG); label: 5' biotin on S3 strand; blunt

B1: core CTCF binding site probe (dsDNA)
DNA 1: AGGACCAGCAGGGGGCGCA
DNA 2: TGCGCCCCCTGCTGGTCCT
B1: binds.
